In general, Kd refers to the concentration at which binding is half-saturated. Lower therefore signals a tighter complex.

These results are taken from US20130273046A1 (published 2013).

This experiment addresses human EDAR-Fc. Put plainly: SPR (Biacore); Fab fragment. For orientation: SPR reads the build-up and loss of mass on a sensor chip optically.

Sequence of human EDAR-Fc (chain, as listed by the source): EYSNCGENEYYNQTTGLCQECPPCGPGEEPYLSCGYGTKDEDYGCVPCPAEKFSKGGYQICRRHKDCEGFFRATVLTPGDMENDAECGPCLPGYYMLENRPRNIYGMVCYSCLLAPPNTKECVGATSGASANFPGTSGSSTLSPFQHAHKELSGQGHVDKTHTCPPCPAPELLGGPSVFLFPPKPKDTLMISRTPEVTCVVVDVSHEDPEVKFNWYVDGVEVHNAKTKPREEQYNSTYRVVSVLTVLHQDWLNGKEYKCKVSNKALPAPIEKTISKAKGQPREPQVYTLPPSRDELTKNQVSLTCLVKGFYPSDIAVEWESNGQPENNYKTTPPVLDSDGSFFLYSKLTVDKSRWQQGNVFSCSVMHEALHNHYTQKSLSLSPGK

B1: mAbEDAR6 (antibody, V domains shown)
VH: EVQLQQSGPELVKPGASVKMSCKASGYSFTGYNMHWVKQSHGKSLEWIGYIDPYNGATSKNQKFKGKATLTVDKSSTTAYIQLNSLTSEDSAVYYCARYYYGDYHWYFDVWGAGTTVTVSS
VL: DVVMTQTPLSLPVSLGDQASISCRSSQSLVHSNGNTYLHWYLQQPGQSPKLLIYKVSNRFSGVPDRFSGSGSGTDFTLKISRVEAEDLGVYFCSQHTHVPPTFGAGTKLELKR
Regarding B1, the Kd was determined as 1.58 nM.

B2: mAbEDAR2 (antibody, V domains shown)
VH: QVQLQQPGAELVKPGASVKLSCKASGYTFTSYWMQWVKQRPGQGIEWIGEIDPSDSYTYYNQKFKGKATLTIDKSSSTAYMQLSSLTSEDSAVYYCSRKNYYRGMDYWGQGTSVTVSS
VL: DVLMTQTPLSLPVSLGDQASISCRSSQNIVQSNGNTYLEWYLQKPGQSPKLLIYKVSNRFSGVPDRFSGSGSGTDFTLKISRVEADDLGVYYCFQVSHVPYTFGGGTKLEIKR
The molecule B2 displayed a Kd of 1 nM.
